Data on one substance can be found in US20180298357A1.

Where only a bound is given, the exact number is not on record here.

Test [1] concerns the target Sau-TBD, hybrid DNA polymerase prepared by inserting a thioredoxin binding domain (TBD) of bacteriophage T7 DNA polymerase into DNA polymerase I (Sau) of S. aureus. The experiment in a line: cell-based or functional assay.
For test [2], the target named is DNA polymerase I (Sau) of Staphylococcus aureus (Staphylococcus aureus). Put plainly: cell-based or functional assay.

Regarding “TrxA (thioredoxin of E. coli) (from UniProt P0AA25 2-109)”, in test [1], the Average amplification length of primers (nt) [1/(1 - PI)], in the presence of TrxA came to 74.1 nt; the Micro continuous synthetic capacities (PI), in the presence of TrxA worked out at 0.987; the Polymerization activities (units/mg protein), +TrxA (units/mg protein) stood at 2860; the fold improvement of average amplification length of the primer on addition of TrxA was > 20 fold. In test [1], the fold improvement of polymerization activity on addition of TrxA is > 2 fold. In addition, the Polymerization activities (units/mg protein), +TrxA (units/mg protein) in test [2] was found to be 3100.
